Laboratory results reported in US20260137799A1, “ANTI-MUC1* ANTIBODY DRUG COMPLEXES AND USES THEREOF” (Minerva Biotechnologies Corporation, priority 2023, published 2026).

Columns and labels:
T47D [1] = experiment: xCELLigence impedance cytotoxicity, T47D; format: cell-based, human; conditions: xCELLigence; 40-120 hours incubation; read-out: IC50, T47D
Procedure, shortened: (§1)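 Adherent target cells plated at 5000/well on electrode plates were grown 24 h, then exposed to serially diluted ADCs in growth medium at 37° C/5% CO2. Killing was followed as real-time impedance loss over 40-120 h, normalized to 1% triton or 1 μM Taxol as 100% kill.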

T47D-MUC1* [2] = experiment: xCELLigence impedance cytotoxicity, T47D-MUC1*; format: cell-based, human; conditions: xCELLigence; 40-120 hours incubation; read-out: IC50, T47D-MUC1*
Protocol: (§2) An xCELLigence RTCA MP Instrument (Agilent) was used to assess real-time killing of target cancer cells). In the xCELLigence system, target cancer cells, which are adherent, are plated onto electrode array 96-well plates. Adherent cells insulate the electrode and increase the impedance. The number of adherent cancer cells is directly proportional to impedance. […] Therefore, increasing impedance reflects the growth of the cancer cells and decreasing impedance reflects the killing of the cancer cells.
(§3) Target Cancer cells (Table 9) were seeded onto a multi-electrode well plate at a density of 5000 cells/well (100 μL of a 50,000 cells/mL stock) and incubated for 24 hr in a 37° C./5% CO2 incubator. ADCs were prepared as a 2× solution in corresponding growth media and 100 μL of each concentration was added to target cells. As a positive control (100% cell killing) cells were treated with either 1% triton or 1 μM Taxol instead of ADC. After 40-120 hours incubation in a 37° C./5% CO2 incubator cell killing was assessed. In this assay, impedance is measured in real-time. When the adherent cancer cells are killed and come off the electrode surface, impedance (insulation) decreases.

T47D-MUC1* 15% [3] = experiment: xCELLigence impedance cytotoxicity, T47D-MUC1* 15%; format: cell-based, human; conditions: 40-120 hours incubation
Protocol: as §2, §3

HPAF-II = experiment: xCELLigence impedance cytotoxicity, HPAF-II; format: cell-based, human; conditions: xCELLigence; 40-120 hours incubation; read-out: IC50, HPAF-II
Protocol: as §2, §3

HPAF-II MUC1* = experiment: xCELLigence impedance cytotoxicity, HPAF-II MUC1*; format: cell-based, human; conditions: xCELLigence; 40-120 hours incubation; read-out: IC50, HPAF-II MUC1*
Protocol: as §2, §3

NCI-H1975 = experiment: xCELLigence impedance cytotoxicity, NCI-H1975; format: cell-based, human; conditions: xCELLigence; 40-120 hours incubation; read-out: IC50, NCI-H1975
Procedure, shortened: as §1

DU-145 [4] = experiment: xCELLigence impedance cytotoxicity, DU-145; format: cell-based, human; conditions: 40-120 hours incubation
Protocol: as §2, §3

T47D [5] = experiment: PrestoBlue live/dead cell assay, T47D; format: cell-based, human; conditions: Presto Blue; 72-120 hour incubation
Protocol: (§4) Another method of measuring the killing activity of ADCs against target cancer cells is to use the PrestoBlue live/dead cell assay (ThermoFisher). Target cancer cells were seeded in a black-walled, clear-bottom 96-well tissue culture plate at a density of 5000 cells/well (100 μL of a 50,000 cells/mL stock) and incubated overnight in a 37° C./5% CO2 incubator. ADCs were prepared as a 2× solution in corresponding cancer cell growth media and 100 μL of each concentration was added to target cancer cells. As a positive control (100% killing) cancer cells were treated with 1 μM Taxol instead of ADC. After 72 hour-120 hour incubation in a 37° C./5% CO2 incubator, cell viability was measure by fluorescence using the PrestoBlue HS assay (ThermoFisher). Briefly, after the incubation period, 20 μL of PrestoBlue HS solution was added. Fluorescence (Ex 560 nm/Em 590 nm) was recorded after 30-90 min. incubation using a Tecan plate reader. Percentage viability was determined by PrestoBlue HS staining and normalized to 1 μM taxol treated cells.
(§5) The normalized fluorescence values were imported into the graph program, Sigma Plot, data plotted as ADC concentration versus normalized fluorescence signal and curve fitted using a four-parameter Hill equation: f=y0+a*x^b/(c^b+x^b) to calculate IC50 values. IC50 values for the ADCs were generally consistent between the xCELLigence and Presto Blue assays.

T47D-MUC1* [6] = experiment: PrestoBlue live/dead cell assay, T47D-MUC1*; format: cell-based, human; conditions: Presto Blue; 72-120 hour incubation
Protocol: as §4, §5

T47D-MUC1* 15% [7] = experiment: PrestoBlue live/dead cell assay, T47D-MUC1* 15%; format: cell-based, human; conditions: Presto Blue; 72-120 hour incubation
Protocol: as §4, §5

HPAFII = experiment: PrestoBlue live/dead cell assay, HPAFII; format: cell-based, human; conditions: Presto Blue; 72-120 hour incubation
Protocol: as §4, §5

HPAFII-MUC1* = experiment: PrestoBlue live/dead cell assay, HPAFII-MUC1*; format: cell-based, human; conditions: Presto Blue; 72-120 hour incubation
Protocol: as §4, §5

H1975 = experiment: PrestoBlue live/dead cell assay, H1975; format: cell-based, human; conditions: Presto Blue; 72-120 hour incubation
Protocol: as §4, §5

DU-145 [8] = experiment: PrestoBlue live/dead cell assay, DU-145; format: cell-based, human; conditions: Presto Blue; 72-120 hour incubation
Protocol: as §4, §5

T47D xenograft tumors = experiment: T47D breast cancer xenograft; format: in vivo, NOD/SCID mice; conditions: intraperitoneal; MMAE ADCs 5-10 mg/kg Days 7, 14, 20; deruxtecan/exatecan ADCs 20 mg/kg weekly x7
Protocol: (§6) For breast cancer xenografts, female NOD/SCID mice (weight 18-22 g, 6-8 weeks old, Charles River Laboratories) previously implanted with a 90-day release estrogen pellet (Innovative Research Laboratories) were subcutaneously injected under isoflurane anesthesia (ISOTHESIA, 250 ml (HENRY SCHEIN, NDC: 11695-6776-2) with one million luciferase-positive T47D breast cancer cells expressing low levels of MUC1*(ATCC) or one million luciferase-positive T47D-MUC1* cells overproducing MUC1* using a BD 26G Insulin Syringes with Detachable Needle (Fisher cat: 329652) or BD 28G Lo-Dose U-100 Insulin Syringes (Fisher cat: 329461).
(§7) Tumor volume was measured from bioluminescence images acquired with a Xenogen IVIS-Spectrum system (Perkin Elmer). Mice were injected […] into the scruff of the neck with 150 ul, 30 mg/mL, D-Luciferin (XenoLight™ D-Luciferin Potassium Salt; PerkinElmer P/N 122799), placed under isoflurane anesthesia, and photographed within 10 minutes of the Leciferin injection. Data was expressed graphically as Radiance (photons/sec) as a function of days post-tumor implantation.
(§8) Tumor mass was determined from tumors excised from mice receiving T47D cells on Day 95 and mice receiving T47D-MUC1* cells on Day 96. […]

[9] = system: T47D-MUC1* xenograft tumors; experiment: T47D-MUC1* breast cancer xenograft; format: in vivo, NOD/SCID mice; conditions: intraperitoneal; MMAE ADCs 5-10 mg/kg Days 7, 14, 20; deruxtecan/exatecan ADCs 20 mg/kg weekly x7
Protocol: as §6, §7, §8

B1: C2 MC-PEG8-VA-PAB exatecan (conjugate, listed as Mus sp.)
heavy: EVQLEESGGGLVKPGGSLKLSCAASGFTFSGYAMSWVRQTPEKRLEWVATISSGGTYIYYPDSVKGRFTISRDNAKNTLYLQMSSLRSEDTAMYYCARLGGDNYYEYFDVWGAGTTVTVSSAKTTPPSVYAKTTPPSVYPLAPGSAAQTNSMVTLGCLVKGYFPEPVTVTWNSGSLSSGVHTFPAVLQSDLYTLSSSVTVPSSTWPSETVTCNVAHPASSTKVDKKIVPRDCGCKPCICTVPEVSSVFIFPPKPKDVLTITLTPKVTCVVVDISKDDPEVQFSWFVDDVEVHTAQTQPREEQFNSTFRSVSELPIMHQDWLNGKEFKCRVNSAAFPAPIEKTISKTKGRPKAPQVYTIPPPKEQMAKDKVSLTCMITDFFPEDITVEWQWNGQPAENYKNTQPIMDTDGSYFVYSKLNVQKSNWEAGNTFTCSVLHEGLHNHHTEKSLSHSPGK
light: DIVITQSTASLGVSLGQRATISCRASKSVSTSGYSYMHWYQQRPGQPPKLLIYLASNLESGVPARFSGSGSGTDFTLNIHPVEEEDAATYYCQHSRELPFTFGGGTKLEIKRADAAPTVSADAAPTVSIFPPSSEQLTSGGASVVCFLNNFYPKDINVKWKIDGSERQNGVLNSWTDQDSKDSTYSMSSTLTLTKDEYERHNSYTCEATHKTSTSPIVKSFNRNEC
modifications: MC-PEG8-VA-PAB-exatecan
notes: ADC: antibody C2 conjugated via MC-PEG8-VA-PAB linker to exatecan
IC50 (T47D [1]): 112 nM
IC50 (T47D-MUC1* [2]): 6.2 nM
IC50 (T47D-MUC1* 15% [3]): 20 nM
IC50 (HPAF-II): 86 nM
IC50 (HPAF-II MUC1*): 72 nM
IC50 (NCI-H1975): 207 nM
IC50 (DU-145 [4]): 163 nM
IC50 (T47D [5]): 153 nM
IC50 (T47D-MUC1* [6]): 8 nM
IC50 (T47D-MUC1* 15% [7]): 25 nM
IC50 (HPAFII): 180 nM
IC50 (HPAFII-MUC1*): 62 nM
IC50 (H1975): 19 nM
IC50 (DU-145 [8]): 160 nM
growth of T47D xenograft tumors (T47D xenograft tumors): inhibit the growth
growth of T47D-MUC1* xenograft tumors [9]: inhibit the growth
